According to US20240317847A1 (Bayer, published 2024):
One block for each binder: values may come before it.

What was measured:
human IL-11 [1] = target: T1, human IL-11 (human, UniProt P20809 22-199); assay: cell-based or functional assay
T1 sequence: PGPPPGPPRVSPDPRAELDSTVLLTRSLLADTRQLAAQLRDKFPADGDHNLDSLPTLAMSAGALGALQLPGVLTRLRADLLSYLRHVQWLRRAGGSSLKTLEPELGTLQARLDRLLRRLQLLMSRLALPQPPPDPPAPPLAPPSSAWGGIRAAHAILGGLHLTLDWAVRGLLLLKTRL

murine IL-11 [2] = target: T2, murine IL-11 (mouse, UniProt P47873 22-199); assay: cell-based or functional assay
T2 sequence: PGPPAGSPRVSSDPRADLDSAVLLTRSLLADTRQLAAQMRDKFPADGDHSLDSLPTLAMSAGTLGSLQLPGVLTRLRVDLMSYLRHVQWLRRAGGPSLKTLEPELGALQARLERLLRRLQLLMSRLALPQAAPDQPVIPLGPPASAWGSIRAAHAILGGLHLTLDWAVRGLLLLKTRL

cynomolgus IL-11 [3] = target: T3, cynomolgus IL-11 (cynomolgus, UniProt P20808 22-199); assay: cell-based or functional assay
T3 sequence: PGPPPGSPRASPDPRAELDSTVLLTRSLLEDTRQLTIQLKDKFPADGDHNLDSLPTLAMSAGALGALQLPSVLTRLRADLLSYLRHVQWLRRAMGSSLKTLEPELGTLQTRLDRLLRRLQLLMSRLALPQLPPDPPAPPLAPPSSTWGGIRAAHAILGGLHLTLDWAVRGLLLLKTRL

rat IL-11 [4] = target: T4, rat IL-11 (rat, UniProt Q99MF5 22-199); assay: cell-based or functional assay
T4 sequence: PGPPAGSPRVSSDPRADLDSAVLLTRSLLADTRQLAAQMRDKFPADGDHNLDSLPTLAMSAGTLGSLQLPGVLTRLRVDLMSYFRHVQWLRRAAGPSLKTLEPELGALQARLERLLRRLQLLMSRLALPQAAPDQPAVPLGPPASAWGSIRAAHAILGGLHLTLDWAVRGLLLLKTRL

murine IL-11 [5] = target: T5, murine IL-11 (mouse, UniProt P47873 22-199); assay: SPR (Biacore), 25 C, antibody captured via anti-Fc, IL-11 as analyte
T5 construct: Invigate recombinant protein; biotinylated when immobilized in the Di-complex ELISA; also called mIL11; mIL-11
T5 sequence: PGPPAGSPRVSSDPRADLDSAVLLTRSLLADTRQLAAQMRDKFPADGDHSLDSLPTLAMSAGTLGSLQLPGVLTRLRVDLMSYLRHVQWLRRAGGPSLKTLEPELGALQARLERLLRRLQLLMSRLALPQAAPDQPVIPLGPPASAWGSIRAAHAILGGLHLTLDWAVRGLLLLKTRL
Method: (§1) To assess the binding kinetics and affinity of anti-IL-11 bispecific antibodies as well as their species cross-reactivity profile, binding assays were conducted using surface plasmon resonance (SPR). […] Antibodies were captured either via anti-human Fc IgGs (“Human antibody capture kit”, Order No. BR100839, Cytiva) or via anti-mouse Fc IgGs (“Mouse antibody capture kit, Order No. BR100383, Cytiva) covalently amine coupled to a Series S CM5 sensor chip (Cytiva) depending on the isotype. The amine coupling was carried out according to the manufacturer's instructions using 1-ethyl-3-(3-dimethylaminopropyl) carbodiimide hydrochloride (EDC), N-hydroxysuccinimide (NHS) and ethanolamine HCl, pH 8.5 (“Amine Coupling Kit” BR-1000-50, Cytiva.). Human, mouse, cynomolgus or rat IL-11 was used as analyte at several dilutions within the concentration range from 0.05-200 nM. For binding assays with only one concentration 200 nM IL-11 was used. The sensor surface was regenerated with glycine pH 1.7 after each antigen injection. Obtained sensorgrams were double referenced (subtraction of reference flow cell signal and buffer injection) and were fitted to a 1:1 Langmuir binding model to derive kinetic data using the Biacore T200 Evaluation software or the Biacore Insight software.
(§2) If no value is reported, there was either no binding or very low binding and multiphasic binding behavior.

cynomolgus IL-11 [6] = target: T6, cynomolgus IL-11 (cynomolgus, UniProt P20808 22-199); assay: as above
T6 construct: Invigate recombinant protein; also called cIL11; Macaca IL-11
T6 sequence: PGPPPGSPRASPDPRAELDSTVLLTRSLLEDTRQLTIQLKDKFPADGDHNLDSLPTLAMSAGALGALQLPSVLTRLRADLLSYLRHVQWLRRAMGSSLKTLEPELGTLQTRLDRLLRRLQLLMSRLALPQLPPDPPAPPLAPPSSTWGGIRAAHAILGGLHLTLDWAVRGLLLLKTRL
Method: as §1, §2

rat IL-11 [7] = target: T7, rat IL-11 (rat, UniProt Q99MF5 22-199); assay: as above
T7 construct: Invigate recombinant protein; also called rIL11
T7 sequence: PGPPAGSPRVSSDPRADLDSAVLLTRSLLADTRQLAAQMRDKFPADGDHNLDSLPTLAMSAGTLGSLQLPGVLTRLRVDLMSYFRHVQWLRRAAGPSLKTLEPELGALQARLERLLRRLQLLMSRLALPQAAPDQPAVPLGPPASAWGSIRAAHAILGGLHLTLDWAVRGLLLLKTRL
Method: as §1, §2

human IL-11 [8] = target: T8, human IL-11 (human, UniProt P20809 22-199); assay: Tri-complex ELISA, hIL-11 + mIL-11Ra-Fc + hgp130-Fc, inhibition of complex formation; Tri-complex ELISA (IL-11/IL-11Ra/gp130 formation), efficacy only 25%
T8 construct: Invigate recombinant protein; biotinylated when immobilized in the Di-complex ELISA; also called hIL11; hIL-11
T8 sequence: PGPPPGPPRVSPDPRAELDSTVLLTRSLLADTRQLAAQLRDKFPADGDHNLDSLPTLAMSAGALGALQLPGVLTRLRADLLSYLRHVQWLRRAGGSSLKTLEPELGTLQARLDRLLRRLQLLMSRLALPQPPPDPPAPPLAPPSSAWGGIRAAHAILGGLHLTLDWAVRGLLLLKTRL
Method: In a first step, 25 μl of goat anti human IgG (Sigma, #12136), diluted 1:1000 in coating buffer (Candor, #121125) was coated on the plate at 4° C. overnight. Next day, the plate was washed one time with 50 μl PBST and then blocked with 50 μl SmartBlock (Candor, #113125) for one hour at room temperature (RT). […] After three additional washes of the coated and blocked microtiter plate with PBS-T, 25 μl of each mixture were added and the assay plate was incubated for one hour at room temperature. After three additional washes, anti-mouse-gp130 biotinylated antibody (R&D, #BAF468) or anti-human gp130 biotinylated antibody (R&D, #BAF228), both 1:1000 in 10% SmartBlock PBS-T, was added and incubated for 1 hour at RT. […] Then, the fluorescence was measured with a plate reader at 535/595 nm. […] Efficacy was calculated as [(signal measured at lowest antibody concentration−signal measured at the highest antibody concentration)×100] divided by (signal measured at lowest antibody concentration−signal measured in the absence of antibody at an IL11 concentration of 8.2E-11 [M]).
IgG converted antibodies were subjected to the experimental assay procedure described in Example 19 and IC50 [M], respectively efficacy (%) were calculated accordingly.

RGA Efficacy (%) (human IL-11 [1]): 46.1%
RGA IC50 (human IL-11 [1]): 6.5 nM
RGA Efficacy (%) (murine IL-11 [2]): 93.6%
RGA IC50 (murine IL-11 [2]): 1.2 nM
RGA Efficacy (%) (cynomolgus IL-11 [3]): 70%
RGA IC50 (cynomolgus IL-11 [3]): 4.1 nM
RGA Efficacy (%) (rat IL-11 [4]): 94%
RGA IC50 (rat IL-11 [4]): 1.8 nM
B1: TPP-18068 (antibody, mouse IgG1)
heavy: EVQLLESGGGLVQPGGSLRLSCAASGFTFSSYGMHWVRQAPGKGLEWVSVISYDGSYKYYADSVKGRFTISRDNSKNTLYLQMNSLRAEDTAVYYCAAGVPDYWGQGTLVTVSSAKTTPPSVYPLAPGSAAQTNSMVTLGCLVKGYFPEPVTVTWNSGSLSSGVHTFPAVLQSDLYTLSSSVTVPSSTWPSETVTCNVAHPASSTKVDKKIVPRDCGCKPCICTVPEVSSVFIFPPKPKDVLTITLTPKVTCVVVDISKDDPEVQFSWFVDDVEVHTAQTQPREEQFNSTFRSVSELPIMHQDWLNGKEFKCRVNSAAFPAPIEKTISKTKGRPKAPQVYTIPPPKEQMAKDKVSLTCMITDFFPEDITVEWQWNGQPAENYKNTQPIMDTDGSYFVYSKLNVQKSNWEAGNTFTCSVLHEGLHNHHTEKSLSHSPGK
light: QSVLTQPPSASGTPGQRVTISCTGSSSNIGAGYDVHWYQQLPGTAPKLLIYSNNERPSGVPDRFSGSKSGTSASLAISGLRSEDEADYYCAAWDDSLNGPVFGGGTKLTVLGQPKSSPSVTLFPPSSEELETNKATLVCTITDFYPGVVTVDWKVDGTPVTQGMETTQPSKQSNNKYMASSYLTLTARAWERHSSYSCQVTHEGHTVEKSLSRADCS
notes: mIgG1, Lambda

Kd (murine IL-11 [5]): 0.35 nM
Kd (cynomolgus IL-11 [6]): 3.8 nM
Kd (rat IL-11 [7]): 0.29 nM
B2: TPP-18068 (antibody, mouse IgG1)
heavy: EVQLLESGGGLVQPGGSLRLSCAASGFTFSSYGMHWVRQAPGKGLEWVSVISYDGSYKYYADSVKGRFTISRDNSKNTLYLQMNSLRAEDTAVYYCAAGVPDYWGQGTLVTVSSAKTTPPSVYPLAPGSAAQTNSMVTLGCLVKGYFPEPVTVTWNSGSLSSGVHTFPAVLQSDLYTLSSSVTVPSSTWPSETVTCNVAHPASSTKVDKKIVPRDCGCKPCICTVPEVSSVFIFPPKPKDVLTITLTPKVTCVVVDISKDDPEVQFSWFVDDVEVHTAQTQPREEQFNSTFRSVSELPIMHQDWLNGKEFKCRVNSAAFPAPIEKTISKTKGRPKAPQVYTIPPPKEQMAKDKVSLTCMITDFFPEDITVEWQWNGQPAENYKNTQPIMDTDGSYFVYSKLNVQKSNWEAGNTFTCSVLHEGLHNHHTEKSLSHSPGK
light: QSVLTQPPSASGTPGQRVTISCTGSSSNIGAGYDVHWYQQLPGTAPKLLIYSNNERPSGVPDRFSGSKSGTSASLAISGLRSEDEADYYCAAWDDSLNGPVFGGGTKLTVLGQPKSSPSVTLFPPSSEELETNKATLVCTITDFYPGVVTVDWKVDGTPVTQGMETTQPSKQSNNKYMASSYLTLTARAWERHSSYSCQVTHEGHTVEKSLSRADCS
notes: mIgG1, Lambda

IC50 (human IL-11 [8]): 1.5 nM
B3: TPP-18087 (antibody, mouse IgG1, V domains shown)
VH: EVQLLESGGGLVQPGGSLRLSCAASGFTFSHYDMNWLRQAPGKGLEWVGVISYDGSNKFYADFVKGRFTISRDNSKNTLYLQMNSLRAEDTAVYYCARTPGSHFDYWGQGTLVTVSS
VL: QSVLTQPPSASGTPGQRVTISCSGSSSNIGNNAVNWYQQLPGTAPKLLIYYDDLLPSGVPDRFSGSKSGTSASLAISGLRSEDEADYYCSAWDDSLNGVVFGGGTKLTVLG
notes: mIgG1, Lambda
